Assay results published in the nanobody polyreactivity screen of Harvey et al. (2022).

Assay: yeast display, Sf9 membrane polyspecificity reagent, FACS + sequencing; frameworks hold sequencing errors
In short: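 Galactose induction of a Saccharomyces cerevisiae BJ5465 synthetic nanobody display library ran 36–48 hours. The cells were then stained for 1 hour at 4 °C with 10% biotinylated, detergent-solubilized Sf9 membrane reagent, pulled down on streptavidin microbeads and FACS-sorted into low and high (top ~1%) gates on expression and reagent-binding fluorescence. Labels for polyreactivity follow the gate of origin.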

| Sequence | polyreactivity (PSR sort gate) |
| --- | --- |
| QVQLVESGGGLVQAGGSLRLSCAASGFIFTFYAMGWYRQEPGKEREFVASIDWGDGSTYYADSVKGRFTISRDNAKNTVYLQMNSLKPEDTAVYYCAHDYDGYVWDTEYDYWGQGTQVTVSS | low polyreactivity |
| QVQLVESGGGLVQAGGSLRLSCSASGSIFRVYGMGWYRQAPGKERELVAAITWSGGSTYYADSVKGRFTISRDNAQNTVYLQMNSLKPEDTAVYYCAARARPRYYRQPYDYLGQGTQVTVSS | high polyreactivity |
| QVQLVESGGGLVQAGGSLRLSCAASGITFDRYAMGWYRQAPGKERELVAAITSGGRTYYADSVKGRFTISRDNAKNTVYLQMNSLKPEDTAVYYCNATRGQYVGRYYYWGQGSQVTVSS | high polyreactivity |
| QVQLVESGGGLVQAGGSLRISCAASGIIFPYAMGWYRQAPGKERELVARITVGSTSYADSVKGRFTISRDNAKNTVYVQMNSLKPEDTAVYYCNKDSGEDDRWPYDYWGQGTQVTVSS | low polyreactivity |
| QVQLVESGGGLVQAGGSLRLSCAASGSIFDLNAMGWYRQAPGKERELVAAISKSGGSTYYADSVKGRFTISRDNAKNTVYLQMNSLKPEDTAVYYCAARYHEPGYSYKFWGQGTQVTVSS | low polyreactivity |
| QVQLVESGGGLVQAGGSLRLSCAASGSTQRGYARGWYRQAPGKERELVASISRRGGSTYYADSVKGRFTISRDNAKNTVYLQMNSLKPEDTAVDYCAATGRRGYGYGYWGQGTQVTVSS | high polyreactivity |
| QVQLVDSGGGLDQAGGSLRLSCAASGSTFYYNAMGWYRQPPGKARELVARISRSGGSTYADSVKGRFTISRDNAMNTVYLQMNSLKPEDTAVYYCNADADGTPEFTSYSVRYDYWGQGSQVTVSS | low polyreactivity |
| QVQLVESGGGLVQAGGSLRLSCAASGFTFRRNAMGWYIQAPGKERELVAAINVRDGSTYYADSVKGRFTISRDNAKNTVYLQMNSLKPEDTAVYYCAAEFFQGYYWYYYWGQGTQVTVSS | high polyreactivity |
| QVQLVESGGGLVQAGGSLRLSCAASGRIFRVYAMGWYRQAPGKERELVAAITSGGTTYADSVKGRFTISRDYAKNTVYLQMNSLKPEDTAVYYCAARYYIHRGYDYDYWGQGTQVTVSS | high polyreactivity |
| QVQLVESGGGLVQAGGSLRLSCAASGFNFGTYAMGWYRQAPGKERELVAAISSGGSTYYADSVKGRFTISRDNAKNTVYLQMNSLKPEDTAVYYCAKEGGTYRIFNYWGQGTQVTVSS | low polyreactivity |
| QVQLVESGGGLVQAGGSLRLSCAASGFIFVGYAMGWYRQAPGKERELVAAISKSGGSTYYADSVKGRFTISRDNAKNTVYLQMNSLKPEDTAVYYCAAAYASRNYRGLDYWGQGIQVTVSS | high polyreactivity |
| QVQLVESGGGLVQAGGSLRLSCAASGTFGLYAMGWYRQAPGKERELVAAIRARGGSTYYADSVKGRFTISRDNAKNTLYLQKNSLKPEETAVYYCAAEFWDVALARKQWYDYWGQGTQVTVSS | high polyreactivity |
| QVQLVESGGGLVQAGGSLRLSCAASGSILRQYAMGWYRQAPGKERELVATITGDGSTNYADSVKGRFTISRDNAKNTVYLQMNSLKPEDTAVYYCNTALTYPYPNVEDLVYGFKLDYWGQGTQVTVSS | low polyreactivity |
| QVQLVESGGGLVQAGGSLRLSCAASGSTFAYYAMGWSRQAPGKERELVASISWRGGSTYYADSVKGRFTNSRDNAKNTVYLQMNSLKPEDTAVYYCAAGRFYIWSRSQEYDYWGQGTQVTVSS | low polyreactivity |
| QVQLVVSGGGLVQAGGSLRLSCAASGYTFQGYAMGWYRQAPGKERELVAGISRSGGRTYYADSVKGRFTISRDNAKNTVYLQMNSLKPEDTAVYYCASTYPGAIRDYWGQGTQVTVSS | high polyreactivity |
| QVQLVESGGGLVQAGGSLRLSCAASGFIFWRYAMGWYRQAPGKDRELVAAISSTGRTYYADSVKGRFTISRDNAKNTVYLQMNSLKPEDTAVYYCNAAPVYLADPTRKYKADYWGQGTQVTVSS | low polyreactivity |
| QVQLVESGGGLVQAGGSLRLSCAASGFTFGYYAMGWYRQAPGKERELVAAINWSGVNTNYADSVKGRFTISRDNEKNTVYLQMNSLKPEDTAVYYCAADAGYDGYGYWGQGTQVTVSS | low polyreactivity |
| QVQLVESGGGLVQAGGSLRLSCAASGSTFNWYAMGWYRQAPGKERELVAAISSGGNTNYADSVKGRFTISRDNAKNTVYLQMNSLKPEDTAVYYCAARYPYKHLAWSTSKRFGYWGQGTQVTVSS | low polyreactivity |
| QVQLVESGGGLVQAGGSLRLSCAASGTILRPYAMGWYRQAPGKERELVAAISTSGGRTFYADSVKGRFTISRDNAKNTVYLQMYSLNPEDTAVYYCAAVGYRFGSNYWGQGTQVTVSS | high polyreactivity |
| QFQLVESGRGIVQAGGSLRLSCAASGFTFGPSAMVWYRQAPGKERELVAVISRSGGRTYYADSVKGRFTISRDNAKNTVYLQMNSLKPEDTAVYYCAAAGYGNDGYDYWGQGTQVTVSS | high polyreactivity |
| QVQLLESGGGLVQAGGSLRLRCAASGTIFRISYMGSYRHAPGKEREFVAAITYCANTYYADSGKGRFTISRDNAKKTVYLHMNSLKPEDTAVYYCAVPPVKETFLDYWGQGTQVTVSS | low polyreactivity |
| QVQHVESGGGLVQAGGSLRLSCAASGLTSVINAMGWYRQAPGKERELVAAMTNGGSTSYADSVKGRFTISRDNAKNPVYLQMNSLKPEDTAVYYWAADIVSSTDYPFDYWGQGTQVTVSS | low polyreactivity |

| Sequence | polyreactivity (PSR sort gate) |
| --- | --- |
| QVQHVESGGGLVQAGGSLRLSCAASGRIFYSNVMGWYRQAPGKERELVAAISGRTGGTYYADSEKGRFTISRDNAKNTVYLQMNSMKPEDTAVYFCAARVIYYYGSGPYDYWGQGTQVTVSS | low polyreactivity |
| QVQLVESGGGLVQAGGSLRLSCAASGSIFYAYAMGWYRQAPGKERELVAVISRGGITNYADSVKGRFTISRDNAKNTVYLQMNSMKPEDTAVYYCAAATSAWGYLRRYGYWGQGTQVTVSS | low polyreactivity |
| QVQLVESGGGLVQAGGSLRLSSAASGFTLDWYVIGWYRKAPWKERELVAAISSSGGRTYYADSVKGRFTISRDNAKNTVYLQMNSLKPEDTAVYYCAARNIYGGYPYGYDYWGQGTQVTVSS | high polyreactivity |
| QVQLVESGGGLVQAGGSLRLSCAASGLTFYTNAMGWYRQAPGKERELVAAITSSGGRTYYADSVKGRFTISRDNAKNTVYLQMNILKPEDTAVYYCAADALRPRIPEMYYWGQGTQVTVSS | high polyreactivity |
| QVQLVESGGGLVQAGGSLRLSCAASGRTFRDNTMGWYRQAPGKERELVAGISSSTGSTYYADSVKGRFTISRDNAKNTVYLQMNSLKPEDTAVYYCAAEYADYWTYNMGYWGQGTQVTVSS | low polyreactivity |
| QVQLVESGGGLVQAGGSLRLSCAASGRTFGSNAMGWYRQAPGKERELVAAISGRTDSTYYADSVKGRFTISRDNAKNTVYLQMNSLKPEDTAVFYCAADSGDVLYYYIRYNYWGQGTQVTVSS | low polyreactivity |
| QDQLVESGGGLVQAGGSLRLSCAASGSTFSDNTMGWYRQAPGKERELVAANTTIGGSTYYADSVKGRFTISRDNAKNTVSVQMISLKPEDTAVYYCAAVDFTSQYYDLYIYWGQGTQVTVSS | low polyreactivity |
| QVQLVESGGGLVQAGGSLRLSCAASGSTFYVYAMGWYRQAPGKERELVAAITVRGGSTYYADSVKGRFTISRDNAKNTVYLQMNSLKPEDTAVYYCAVDVSKPYYEMDYWGQGTQVTVSS | high polyreactivity |
| QVQLVESGGGLVQAGGSLRLSCAASGFTVGVYAMGWYRQAPGKERELVAAISSGGSTNYADSVKGRFTISRDNAKNTVYLQMNSLKPEDTAVYYCAKDVWYLVYYHWKSNRVWQYDYWGQGTQVTVSS | low polyreactivity |
| QVQLVESGGGLVQAGGSLRLSCAASGRTFGLNAMGWYRQAPGKERELVAAITSGGSTYYADSVKGRFTITRDNAKTTVYLQMNSLKPEDTAVYYCAAAYFDFWGWLHDYWGQGTQVTVSS | low polyreactivity |
| QVQLVESGGGLVQAGGSLRLSCAASGRIFLYYAMGWYRQAPGKERELVAAITWSGGSTYYADSVKGRFTISRDNAKNTVYLQMNSLKPEDTAVYYCAADYLYGQTIYQVPSHYYYWGQGTQVTVSS | low polyreactivity |
| QVQLVESGGGLVQAGGSLRLSCAASGSIFGLNDMGWYRQAPGKERELVAGISSGGSTYYADSVKGRFTISRDNAKNTVYLQMNSLKPEDTAVYYCATEGRWPNASYGDYDYWGQGTQVTVSS | low polyreactivity |
| QVQLVESGGGLVQAGGSLRLTCAASGRIFIYYAMGWYRQAPGKERELVAAISWGGGRTYYADSVKGRFTISRDNAKNTVYLQMNSLKPEDTAVYYCAAGVYTGQHEYDYWGQGTQVTVSS | low polyreactivity |
| QVQLVESGGGLVQAGGSLRLSCAASGITFSKYAMGWYRQAPGKERELVAAISQRGGSKYYADSVKGRFTISRDNAKNTVYLQMNSLKPEDTAVYYCNAEFYWSIIAYEYWGQGTQVTVSS | high polyreactivity |
| QVQLVESGGGLVQAGGSLRLSCSASGSNFYTNAMGWYRQAPGKERELVAVITASGGSTYYADSVKGRFTISRDYAKNTVYLLMNSLKPEDTAVYYCASDPVFNYDYWGQGTQVTVSS | low polyreactivity |
| QVQLVESGGGLVQAGGSLRLSCAASVRIFVYYAMGWYRQAPGKERELVASISYSGASTYYADSVKGRFTISRDNAKKTVYLQMNSLKPEDTAVYYCNTDGDDFFHVIYDYWGQGTQVTVSS | low polyreactivity |
| QVQLVESGGGLVQAGGSLRLSCAASGRTFAYYTMGWYRQAPGKERELVARISGYGGSTYYADSVKGRFTLSRDNAKNTVYLQMNSLKPEDTAVYYCNVVGAYYRYDYWGQGTQVTVSS | high polyreactivity |
| QVQLVESGGGLVQAGGSLRLSCAASGRILDAYTMGWYRQAPGKERQLVAAISASGVSTYYADSVKGRFTISRDNAKNTVYLQMNSLKPEDTAVYYCAKDYYQQTGFLEYDYWGHGTQVTVSS | low polyreactivity |
| QVQLVESGGGLVQAGGSLRLSCAASGSIFRVNAMGWYRQAPGKERELVAAITSGGTTTYYADSVKGRFTISLDNAKNTVYLQMNSLKPEDTAVYYCSKYPYPIYHTDGDDWGQGTQVTVSS | low polyreactivity |
| QVQLVESGGGLVQAGGSLRLSCAASGTTFAGNAMGWYRQAPGKEREFVAAITISGGSTYYADSVKGRFTISRDNAKNTVYLQMNRLKPEDTAVYYCAADYAYYVSLPSRFVYAGYDYWGQGTQVTVSS | low polyreactivity |
| QVQLVESGGGLVQAGGSLRLSCAASGRIFSYAMGWYRQAPGKERELVAGISRSGGSTYYADSVKGRFTISRDNAKNTVYLQMNSLKPEDTAVYYCAAVKIRTVYKYNYWGQGTQVTVSS | high polyreactivity |
